Data on three molecules can be found in paper PMC8927147, “Global profiling of regulatory elements in the histone benzoylation pathway” (Nature Communications, 2022).

The target of test [1] is T1, H3K14bz peptide.
T1 chain: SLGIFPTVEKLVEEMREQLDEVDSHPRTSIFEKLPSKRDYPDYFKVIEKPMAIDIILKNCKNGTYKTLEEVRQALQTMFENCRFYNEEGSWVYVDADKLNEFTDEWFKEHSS
As to the kind of experiment: ITC. The note with it: chain shown with the change.

The target of test [2] is T2, H3K27bz peptide.
T2 chain: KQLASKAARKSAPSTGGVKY
The experiment in a line: ITC. Conditions: chain shown with the change.

Numbering of substitutions follows the chain as printed. In names and notes the source's numbering stands.

One may read the Kd as the concentration at which binding is half-saturated. Read a low Kd as tighter binding.

As for TARKSTGGKAPRKQLASY [Sth1BD, P32597 A1329C], the Kd in test [1] was 187 µM.

B1: Sas5_(YEATS), Q99314 K64P (protein)
chain: DHSIEVTFRVKTQQVIIPEQNIRGNELPLRRWQMELLMLDATGKEVEPTILSKCIYHLHSSFPQPKRRLNSLPFFIKETGWGEFNLKIECFFIGNAGKFSIEHDLTFEDDAYAVDYTVDVPHEFSHLNSELSKYFDLP
In test [2], B1 returned a dissociation constant Kd of 31.1 µM.

B2: Sas5_(YEATS), Q99314 L30H (protein)
chain: B1 chain with L29H, P63K
As to B2, the Kd in test [2] came to 369 µM.
